# Laboratory results reported in patent US20230212587A1, “Mutant Hydroxyphenylpyruvate Dioxygenase Polypeptide, Encoding Gene Thereof and Use Therefor” (Beijing Dabeinong Biotechnology Co., Ltd., priority 2019, published 2023).
# B1: CaHPPDm-F372G: Cicer arietinum HPPD mutant F372G, SEQ ID NO: 315 (protein)
# chain: MGTIETQTGFKLVGFNNFVRTNPKSDRFKVKRFHHVEFWCPDATNTARRFSWGLGMPIVAKSDLSTGNQTHASYLLRSGDLNFLFTAAYSPSISLSAPHPTASIPSFSAPTSFAFSASHGLGVRAVAIEVDDAEFAYTTSVNHGAIPSSPPVVLDNRVKLAEVQLYGDVVLRYVSYNDPIETSNPNPNHWFLPGFEPVEETSSNQSIDFGIQRLDHAVGNVPELSSALNYVKQFTGFHEFAEFTAEDVGTSESGLNSTVLANNEETVLLPMNEPVYGTKRKSQIQTYLEHNEGAGLQHLALMSNDIFKTLREMRKRSGIGGFEFMPSPPPTYYSNLKKRVGDVLNDEQIKECEELGILVDKDDQGTLLQIGTKPVGDRPTIFIEIIQRVGCMLKDDEGKEYQKGGCGGFGKGNFSELFKSIEEYEKTLEIKRTA
# modifications: CaHPPDm-F372G Amino Acid Sequence
# B2: OsHPPDm-F372G: Oryza sativa HPPD mutant F372G, SEQ ID NO: 311 (protein)
# chain: MPPTPTPTATTGAVSAAAAAGENAGFRLVGHRRFVRANPRSDRFQALAFHHVELWCADAASAAGRFAFALGAPLAARSDLSTGNSAHASLLLRSASVAFLFTAPYGGDHGVGADAATTASIPSFSPGAARRFAADHGLAVHAVALRVADAADAFRASVAAGARPAFQPADLGGGFGLAEVELYGDVVLRFVSHPDGADAPFLPGFEGVSNPGAVDYGLRRFDHVVGNVPELAPVAAYISGFTGFHEFAEFTAEDVGTAESGLNSVVLANNAETVLLPLNEPVHGTKRRSQIQTYLDHHGGPGVQHIALASDDVLGTLREMRARSAMGGFEFLAPPPPNYYDGVRRRAGDVLSEEQINECQELGVLVDRDDQGVLLQIGTKPVGDRPTFFLEMIQRIGCMEKDESGQEYQKGGCGGFGKGNFSELFKSIEEYEKSLEAKQAPTVQGS
# modifications: OsHPPDm-F372G Amino Acid Sequence
# B3: GmHPPDm-F372G: Glycine max HPPD mutant F372G, SEQ ID NO: 313 (protein)
# chain: MPMYTPSLSAPSSNHIQPSVTLPLYITTTKLNLKQQHHTTPMPIPMCNEIQAQAQAQAQPGFKLVGFKNFVRTNPKSDRFQVNRFHHIEFWCTDATNASRRFSWGLGMPIVAKSDLSTGNQIHASYLLRSGDLSFLFSAPYSPSLSAGSSAASSASIPSFDAATCLAFAAKHGFGVRAIALEVADAEAAFSASVAKGAEPASPPVLVDDRTGFAEVRLYGDVVLRYVSYKDAAPQAPHADPSRWFLPGFEAAASSSSFPELDYGIRRLDHAVGNVPELAPAVRYLKGFSGFHEFAEFTAEDVGTSESGLNSVVLANNSETVLLPLNEPVYGTKRKSQIETYLEHNEGAGVQHLALVTHDIFTTLREMRKRSFLGGFEFMPSPPPTYYANLHNRAADVLTVDQIKQCEELGILVDRDDQGTLLQIGTKPVGDRPTIFIEIIQRIGCMVEDEEGKVYQKGACGGFGKGNFSELFKSIEEYEKTLEAKRTA
# modifications: GmHPPDm-F372G Amino Acid Sequence
# B4: SiHPPDm-F372G: Setaria italica HPPD mutant F372G, SEQ ID NO: 307 (protein)
# chain: MPPTPTPAAAAPGAAAAPAAGDQAAFRLVGHRGFVRVNPRSDRFHTLSFHHVELWCADATSAAGRFSFGLGAPLAARSDLSTGNSAHASLLLRSGSLAFLFTAPYAHGVDAATASLPSFSAPAARSFAADHGLAVRAIGLRVADAEDAFRASVAAGARPAFKPVELGLGFRLAEVELYGDVVLRYVSYPDAEDAPFLPGFENVNNPGALNYGLRRFDHIVGNVPELAPVAAYVAGFTGFHEFAEFTAEDVGTAESGLNSMVLANNSETVLIPLNEPVHGTKRRSQIQTFLDHNGGPGVQHIALASDDVLRTLREMQARSAMGGFEFMAAPPPDYYEGVRRRAGDVLSEAQIKECQELGVLVDRDDQGVLLQIGTKPVGDRQTLFLEIIQRIGCMEKDEQGQEYQKGGCGGFGKGNFSQLFKSIEDYEKSLESKQAAAVQGS
# modifications: SiHPPDm-F372G Amino Acid Sequence
# B5: AtHPPDm-F372G: Arabidopsis thaliana HPPD mutant F372G, SEQ ID NO: 297 (protein)
# chain: MGHQNAAVSENQNHDDGAASSPGFKLVGFSKFVRKNPKSDKFKVKRFHHIEFWCGDATNVARRFSWGLGMRFSAKSDLSTGNMVHASYLLTSGDLRFLFTAPYSPSLSAGEIKPTTTASIPSFDHGSCRSFFSSHGLGVRAVAIEVEDAESAFSISVANGAIPSSPPIVLNEAVTIAEVKLYGDVVLRYVSYKAEDTEKSEFLPGFERVEDASSFPLDYGIRRLDHAVGNVPELGPALTYVAGFTGFHQFAEFTADDVGTAESGLNSAVLASNDEMVLLPINEPVHGTKRKSQIQTYLEHNEGAGLQHLALMSEDIFRTLREMRKRSSIGGFDFMPSPPPTYYQNLKKRVGDVLSDDQIKECEELGILVDRDDQGTLLQIGTKPLGDRPTIFIEIIQRVGCMMKDEEGKAYQSGGCGGFGKGNFSELFKSIEEYEKTLEAKQLVG
# modifications: AtHPPDm-F372G Amino Acid Sequence
# B6: HvHPPDm-F372G: Hordeum vulgare HPPD mutant F372G, SEQ ID NO: 305 (protein)
# chain: MPPTPTTPAATGAAAAVTPEHARPHRMVRFNPRSDRFHTLSFHHVEFWCADAASAAGRFAFALGAPLAARSDLSTGNSAHASQLLRSGSLAFLFTAPYANGCDAATASLPSFSADAARRFSADHGIAVRSVALRVADAAEAFRASRRRGARPAFAPVDLGRGFAFAEVELYGDVVLRFVSHPDGTDVPFLPGFEGVTNPDAVDYGLTRFDHVVGNVPELAPAAAYIAGFTGFHEFAEFTAEDVGTTESGLNSVVLANNSEGVLLPLNEPVHGTKRRSQIQTFLEHHGGPGVQHIAVASSDVLRTLRKMRARSAMGGFDFLPPPLPKYYEGVRRLAGDVLSEAQIKECQELGVLVDRDDQGVLLQIGTKPVGDRPTLFLEMIQRIGCMEKDERGEEYQKGGCGGFGKGNFSELFKSIEDYEKSLEAKQSAAVQGS
# modifications: HvHPPDm-F372G Amino Acid Sequence
# B7: BdHPPDm-F372G: Brachypodium distachyon HPPD mutant F372G, SEQ ID NO: 303 (protein)
# chain: MPPPATTAAPAAAAVTPEHARPPRRVARVNPRSDRFSALSFHHVELWCADAASAAGRFSFALGAPPAARSDLSTGNSAHASILLRSGSLAFLFTAPYAPSPASDSAASIPSFSASAARQFTADHGGLAVRAVALRVSSASDAFHASVSAGARPSFPPADLGQGFALAEVELYGDVVLRFISHPDENTEIPFLPGFESVSNPGASTYGLTRFDHVVGNVPSLAPVAAYIAGFTGFHEFAEFTAEDVGTADSGLNSVVLANNSERVLLPLNEPVHGTKRRSQIQTYLDHHGGPGVQHIALASDDVLRTLREMRARSAMGGFEFLAPPPPNYYDGVRRRAGDVLSEAQIKECQELGVLVDRDDQGVLLQIGTKPVGDRPTLFLEMIQRIGCMEKDEIGQEQQKGGCGGFGKGNFSELFRSIEEYEKSLEAKQSAVVQES
# modifications: BdHPPDm-F372G Amino Acid Sequence
# B8: SbHPPDm-F372G: Sorghum bicolor HPPD mutant F372G, SEQ ID NO: 309 (protein)
# chain: MPPTPTTAAATGAAVAAASAEQAAFRLVGHRNFVRVNPRSDRFHTLAFHHVELWCADAASAAGRFSFGLGAPLAARSDLSTGNTAHASLLLRSGALAFLFTAPYAHGADAATASLPSFSAAEARRFAADHGLAVRAVALRVADAEDAFRASVAAGARPAFEPVELGLGFRLAEVELYGDVVLRYVSYPDDADASFLPGFVGVTSPGAADYGLRRFDHIVGNVPELAPAAAYFAGFTGFHEFAEFTAEDVGTTESGLNSMVLANNAENVLLPLNEPVHGTKRRSQIQTYLDHHGGPGVQHMALASDDVLRTLREMQARSAMGGFEFMAPPAPEYYDGVRRRAGDVLTEAQIKECQELGVLVDRDDQGVLLQIGTKPVGDRPTLFLEIIQRIGCMEKDEKGQEYQKGGCGGFGKGNFSQLFKSIEDYEKSLEAKQAAAAQGS
# modifications: SbHPPDm-F372G Amino Acid Sequence
# B9: F372 deletion (protein, listed as Avena sativa)
# chain: MPPTPATATGAAAAAVTPEHAARSFPRVVRVNPRSDRFPVLSFHHVELWCADAASAAGRFSFALGAPLAARSDLSTGNSAHASLLLRSGALAFLFTAPYAPPPQEAATAAATASIPSFSADAARTFAAAHGLAVRSVGVRVADAAEAFRVSVAGGARPAFAPADLGHGFGLAEVELYGDVVLRFVSYPDETDLPFLPGFERVSSPGAVDYGLTRFDHVVGNVPEMAPVIDYMKGFLGFHEFAEFTAEDVGTTESGLNSVVLANNSEAVLLPLNEPVHGTKRRSQIQTYLEYHGGPGVQHIALASNDVLRTLREMRARTPMGGFEFMAPPQAKYYEGVRRIAGDVLSEEQIKECQELGVLVDRDDQGVLLQITKPVGDRPTFFLEMIQRIGCMEKDEVGQEYQKGGCGGFGKGNFSELFKSIEDYEKSLEVKQSVVAQKS
# modifications: AsHPPD Amido Acid Sequence
# Test system: Arabidopsis thaliana T1 plants
# Assay: Topramezone tolerance of transgenic Arabidopsis thaliana T1 plants (pesticide damage grade by bleached leaf area, score, resistance evaluation)
# Assay type: in vivo
# Parameters: score: scale not given here
# Conditions: for Resistance evaluation: HPPD F372G mutants, Table 6; for Resistance Grade / score / Grade 0 / Grade 1 / Grade 2 / Grade 3: HPPD from Avena sativa source; for Grade 0 / Grade 1 / Grade 2 / Grade 3: number of plants
# How it was run: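 Herbicide tolerance was judged per plant on a bleaching scale (grade 0 no bleaching to grade 3 fully bleached) 7 DAT. Topramezone doses were 0, 25, 50 and 100 g ai/ha on 18-day-old T1 and wild-type plants.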
molecule,measurement,setting,value
B1,Resistance evaluation,topramezone 25 g ai/ha (1x),Poorly resistant
same,Resistance evaluation,topramezone 100 g ai/ha (4x),Non-resistant
B2,Resistance evaluation,topramezone 25 g ai/ha (1x),Moderately resistant
same,Resistance evaluation,topramezone 100 g ai/ha (4x),Non-resistant
B3,Resistance evaluation,topramezone 25 g ai/ha (1x),Poorly resistant
same,Resistance evaluation,topramezone 100 g ai/ha (4x),Non-resistant
B4,Resistance evaluation,topramezone 25 g ai/ha (1x),Moderately resistant
same,Resistance evaluation,topramezone 100 g ai/ha (4x),Poorly resistant
B5,Resistance evaluation,topramezone 25 g ai/ha (1x),Poorly resistant
same,Resistance evaluation,topramezone 100 g ai/ha (4x),Non-resistant
B6,Resistance evaluation,topramezone 25 g ai/ha (1x),Highly resistant
same,Resistance evaluation,topramezone 100 g ai/ha (4x),Poorly resistant
B7,Resistance evaluation,topramezone 25 g ai/ha (1x),Highly resistant
same,Resistance evaluation,topramezone 100 g ai/ha (4x),Moderately resistant
B8,Resistance evaluation,topramezone 25 g ai/ha (1x),Moderately resistant
same,Resistance evaluation,topramezone 100 g ai/ha (4x),Non-resistant
B9,Resistance Grade,topramezone 25 g ai/ha (1x),Highly resistant
same,score,topramezone 25 g ai/ha (1x),0
same,Grade 0,topramezone 25 g ai/ha (1x),20
same,Grade 1,topramezone 25 g ai/ha (1x),0
same,Grade 2,topramezone 25 g ai/ha (1x),0
same,Grade 3,topramezone 25 g ai/ha (1x),0
same,Resistance Grade,topramezone 50 g ai/ha (2x),Highly resistant
same,score,topramezone 50 g ai/ha (2x),0
same,Grade 0,topramezone 50 g ai/ha (2x),20
same,Grade 1,topramezone 50 g ai/ha (2x),0
same,Grade 2,topramezone 50 g ai/ha (2x),0
same,Grade 3,topramezone 50 g ai/ha (2x),0
same,Resistance Grade,topramezone 100 g ai/ha (4x),Highly resistant
same,score,topramezone 100 g ai/ha (4x),3
same,Grade 0,topramezone 100 g ai/ha (4x),18
same,Grade 1,topramezone 100 g ai/ha (4x),2
same,Grade 2,topramezone 100 g ai/ha (4x),0
same,Grade 3,topramezone 100 g ai/ha (4x),0
